Measurements taken from PMC12888917, “Structure-based engineering of the midnolin-proteasome pathway for targeted protein degradation” (Protein & Cell, 2025).

Biological target: T1, full-length RPN1 (UniProt Q13200 1-908)
T1 construct: RPN1, full length, as isolated protein in the BLI assay
Assay: BLI; full-length RPN1 and GST-tagged midnolin C-Helix (375–413)
Conditions: both partners purified

T1 sequence (Q13200 whole entry): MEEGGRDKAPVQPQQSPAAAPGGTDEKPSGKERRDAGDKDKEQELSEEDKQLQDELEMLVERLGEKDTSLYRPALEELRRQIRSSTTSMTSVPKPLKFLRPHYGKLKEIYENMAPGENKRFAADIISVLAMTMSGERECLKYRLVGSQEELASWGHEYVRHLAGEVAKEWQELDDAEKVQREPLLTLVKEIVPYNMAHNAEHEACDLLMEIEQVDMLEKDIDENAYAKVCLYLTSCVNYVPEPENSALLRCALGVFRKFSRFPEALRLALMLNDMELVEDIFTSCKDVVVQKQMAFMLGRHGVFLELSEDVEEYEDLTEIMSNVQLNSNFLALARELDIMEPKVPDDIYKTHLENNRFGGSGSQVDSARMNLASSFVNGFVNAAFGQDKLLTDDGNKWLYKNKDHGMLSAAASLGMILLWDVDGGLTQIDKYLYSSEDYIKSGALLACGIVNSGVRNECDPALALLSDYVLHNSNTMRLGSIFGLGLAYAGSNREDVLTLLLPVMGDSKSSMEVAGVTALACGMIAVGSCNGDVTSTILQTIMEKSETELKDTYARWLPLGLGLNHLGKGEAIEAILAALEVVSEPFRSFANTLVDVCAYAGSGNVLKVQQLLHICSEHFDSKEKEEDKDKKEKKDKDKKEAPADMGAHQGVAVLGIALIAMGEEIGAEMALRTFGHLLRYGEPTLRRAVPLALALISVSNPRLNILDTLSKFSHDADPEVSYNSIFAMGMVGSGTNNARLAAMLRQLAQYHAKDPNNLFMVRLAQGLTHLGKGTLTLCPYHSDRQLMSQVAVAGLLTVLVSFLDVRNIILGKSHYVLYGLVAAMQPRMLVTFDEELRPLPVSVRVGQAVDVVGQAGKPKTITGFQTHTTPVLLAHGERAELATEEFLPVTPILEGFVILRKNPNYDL

- Kd: ~88.5 nM
B1: GST-tagged midnolin C-Helix (375–413) (domain or fragment, human, UniProt Q504T8 375-413, looked up)
chain: PPGDRLRQTENRATRCKVERLQLLLQQKRLRRKARRDAR
notes: also called MIDN C-Helix
